Experimental data published in patent US20240226168A1.

Target: poliovirus receptor (PVR) (UniProt P15151)
Assay: cell-based or functional assay

- frequency of TNFα+ NK cells after A549 spheroid co-culture (isotype control) and restimulation with PVR+ K562 cells: 15%
- loss in the IFNγ generation capacity of A549 spheroid-exposed PM21-NK cells: 30%
Sequence: T cell immunoreceptor with Ig and ITIM domains (TIGIT) (from UniProt Q495A1 22-244)
